Test in all cases: EMSA
One data set concerns the target NPR1 (Arabidopsis thaliana, UniProt P93002 SEQ:1-593). The following applies: tags: His10-MBP (PreScission site) N-terminal, C-terminal Strep tag; E. coli; chain copies: 2 (stated); label: 6-FAM. Here is the method: (§1) The npr1(dim) mutant (L49D/F53D/V56D/V83K) was cloned into the pTrcHis vector (Thermo Fisher Scientific) as a His10-MBP fusion protein containing a PreScission protease site following MBP and a C-terminal Strep tag, and was expressed and purified similarly to the WT NPR 1 protein. Purified TGA3 (Asn87-Thr384) at a concentration of 0.6 μM and WT NPR1 or the npr1(dim) mutant at a concentration of 8 μM were used in the EMSA with the 6-fluorescein (6-FAM)-labelled oligonucleotide probes (200 nM) containing the LS5 and LS7 as-I cis-elements of the SA-responsive PRI gene promoter (LS5/LS7, 6-FAM-C-ggg[…]ggg) or DNA sequences with the two as-1 regions replaced with adenosines (LS5/LS7, 6-FAM-C-ggg[…]ggg), with the LS7 as-1 element replaced with adenosines (LS5/LS7, 6-FAM-C-ggg[…]-GAggg) or with the LS5 as-1 element replaced with adenosines (LS5/LS7, 6-FAM-C-ggg[…]ggg) as well as their complementary oligonucleotides (Integrated DNA Technologies). The uppercase bases indicate the LS5/LS7 sequence; the lowercase bases indicate overhangs outside the LS5/LS7 sequence; and bases replaced with adenosines are indicated with A's in the small capital font. Pairs of complementary DNA strands were annealed before the binding reaction. For each binding reaction, the desired protein combination was mixed with the target DNA probe together with 30 ng/μL of poly (dI-dC) (non-specific competitor, Thermo Fisher Scientific) in a binding buffer containing 20 mM HEPES (pH 8.0), 300 mM NaCl, 10% glycerol, 1 mM DTT and 0.2 mM SA. […] After electrophoresis, the gel was scanned with the Typhoon FLA 7000 imager (GE Healthcare).

The next data set concerns the target T1, TGA3 (Asn87-Thr384) (Arabidopsis thaliana, UniProt Q39234 Q39234:87-384).
T1 sequence: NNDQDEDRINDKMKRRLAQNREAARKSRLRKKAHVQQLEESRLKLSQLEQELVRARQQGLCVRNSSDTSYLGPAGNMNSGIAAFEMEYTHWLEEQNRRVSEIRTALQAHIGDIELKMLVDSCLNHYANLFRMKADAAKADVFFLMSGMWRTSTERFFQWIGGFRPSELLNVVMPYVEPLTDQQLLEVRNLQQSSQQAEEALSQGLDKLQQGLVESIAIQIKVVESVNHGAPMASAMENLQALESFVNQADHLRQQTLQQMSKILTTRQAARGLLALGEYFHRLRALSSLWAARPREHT
The following applies: tags: His10-MBP (PreScission site) N-terminal, C-terminal tandem Flag-HA; AT1G22070; E. coli; label: 6-FAM. Here is the method:
as §1

In data set [1] the target is TGA3 (Asn87-Thr384) + NPR1 complex (Arabidopsis thaliana, UniProt Q39234;P93002 Q39234:87-384,P93002:1-593). The following applies: tags: TGA3-Flag-HA; NPR1-Strep; chain copies: TGA3 dimer x2 + NPR1 dimer (stated); label: 6-FAM. The procedure: as §1

B1: PR1 promoter LS5/LS7 (dsDNA)
DNA 1: GGGCTATGACGTAAGTAAAATAGTGACGTAGAGAGGG
DNA 2: CCCTCTCTACGTCACTATTTTACTTACGTCATAGCCC
Consider B1, for which the values for the binding result (in the data set with NPR1; in the data set with TGA3 (Asn87-Thr384); in data set [1]) were “no binding”, “binds” and “binds”, respectively.
